# US20140051645A1 (Pieris, published 2014)
# Substitutions are numbered along the chain they refer to.
# T1: human CTLA-4 on transfected CHO-K1 cells (human, UniProt P16410 36-223)
# T1 construct: whole, on cells; also called human CTLA4-transfected CHO cells; CTLA-4 expressing CHO cells
# T1 sequence (looked up): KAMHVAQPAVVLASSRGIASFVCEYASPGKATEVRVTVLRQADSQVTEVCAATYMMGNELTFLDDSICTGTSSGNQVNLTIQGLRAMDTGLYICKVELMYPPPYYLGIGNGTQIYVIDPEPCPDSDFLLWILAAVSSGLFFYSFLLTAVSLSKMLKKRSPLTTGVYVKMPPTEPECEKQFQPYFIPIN
# T2: human CTLA-4-Fc (Chimerigen) (human, UniProt P16410 36-161, limits assumed)
# T2 construct: Bought fusion protein; also called hCTLA4-Fc; not shown: It was captured by an anti-human IgG-Fc antibody
# T2 sequence (looked up): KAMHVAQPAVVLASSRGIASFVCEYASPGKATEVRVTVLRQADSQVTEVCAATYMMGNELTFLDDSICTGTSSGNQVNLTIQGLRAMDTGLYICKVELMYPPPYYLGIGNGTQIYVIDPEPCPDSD
# B1: hNGALM4 (designed binder)
# chain: QDSTSDLIPAPPLSKVPLQQNFQDNQFHGKWYVVGLAGNRILRDDQHPMPMYATIYELKGDKSYNVTSVISSHKKCLYPIATFVPGSQPGEFTLGNIKSYGDKWSYLVRVVSTDYNQYAVVFFKHADSNYESFSITIYGRTKELASELKENFIRFSKSLGLPENHIVFPVPIDQCIDG
# B2: hNGALM3 (designed binder)
# chain: QDSTSDLIPAPPLSKVPLQQNFQDNQFHGKWYVVGLAGNRILRQDQHPMLMYATIYELKGDKSYNVTSVISSHKKCLYPIATFVPGSQPGEFTLGNIKSYGDKVSYLVRVVSTDYNQYAVVFFKHADTNYESFSITIYGRTKELASELKENFIRFSKSLGLPENHIVFPVPIDQCIDGSAWSHPQFEK
# B3: hNGALM6 (designed binder)
# chain: B2 chain with Q44S, L50P, P79S, V104E, H125Y, D127S, T128D, Y130D
# B4: hNGALM5 (designed binder)
# chain: B2 chain with Q44S, L50R, P79T, V104W
# B5: hNGALM2 (designed binder)
# chain: B2 chain with I41L, Q44D, L50D, V104W
# B6: hNGALM7 (designed binder)
# chain: B2 chain with Q44L, L50P, K98R, V104T
# B7: SEQ ID NO 14 (designed binder)
# chain: MASMTGGQQMGQDSTSDLIPAPPLSKVPLQQNFQDNQFHGKWYVVGLAGNRILRDDQHPMPMYATIYELKGDKSYNVTSVISSHKKCLYPIATFVPGSQPGEFTLGNIKSYGDKWSYLVRVVSTDYNQYAVVFFKHADSNYESFSITIYGRTKELASELKENFIRFSKSLGLPENHIVFPVPIDQCIDG
# notes: Screening construct in crude E. coli lysate, with T7 tag, mutein and Strep-tag II
# B8: SEQ ID NO 17 (designed binder)
# chain: B7 chain with D55L, K109R, W115T, S139T
# notes: as for B7
# B9: SEQ ID NO 13 (designed binder)
# chain: B7 chain with D55Q, P61L, W115V, S139T
# notes: as for B7
# B10: SEQ ID NO 16 (designed binder)
# chain: B7 chain with D55S, P90S, W115E, H136Y, D138S, S139D, Y141D
# notes: as for B7
# B11: SEQ ID NO 15 (designed binder)
# chain: B7 chain with D55S, P61R, P90T, S139T
# notes: as for B7
# Target: T1, human CTLA-4 on transfected CHO-K1 cells
# Test: competition FACS on human CTLA4-transfected CHO-K1 cells; competitor biotinylated human B7.1 at 10 nM
# Experimental: Different concentrations of the Lcn2 muteins or, as a positive control, of the antibody BNI3 (BD Bioscience) were mixed with recombinant biotinylated human B7.1 (Ancell) at 10 nM final concentration and added to 100 000 of the CTLA-4 transfected CHO-K1 cells which were generated according to the description in example 16 of PCT/EP 2005/012640. Samples were incubated at 4° C. for 2 h, washed twice in PBS containing 2% w/v BSA, and detection of bound B7.1 was accomplished by incubation with streptavidin-phycoerythrin for 30 min at 4° C. Mean fluorescence intensities were determined by flow cytometry and fitted to a sigmoidal dose response model using Prism (GraphPad) as depicted in FIG. 4 to determine EC50 values for Lcn2 muteins from sequences of SEQ ID NO: 12 to SEQ ID NO: 17 which are summarized in Table 3.
row,EC50 [nM],Molecule
1,9.5,B1
2,7.6,B2
3,10.3,B3
4,9,B4
5,6,B5
6,11,B6

# Target: T1, human CTLA-4 on transfected CHO-K1 cells
# Test: competition FACS on human CTLA4-transfected CHO-K1 cells; blocked ligand: biotinylated human B7.1 at 10 nM, detected with streptavidin-phycoerythrin
row,IC50 (read off the curve) [nM],Molecule
1,3,BNI3 (antibody)

# Target: T2, human CTLA-4-Fc (Chimerigen)
# Test: screening ELISA of crude lysates: mutein captured by T7 mAb, limited soluble human CTLA4-Fc; in some cases competition ELISA with mAb BNI3
# Experimental: Therein, NGAL variants equipped with a T7 detection tag (Novagen) as well as a Strep-tag II affinity tag (IBA) were soluble expressed in a 96 well microtiter plate using the E. coli strain TG1/F with phNGAL37 SEQ ID NO: 10. This vector corresponds to phNGAL15 SEQ ID NO: 11 as described in the following example 4 with an N-terminal T7 tag consisting of 11 amino acids ([…]). Lipocalin mutein expression was induced overnight at 22° C. at 700 rpm with anhydrotetracycline (0.2 μg/ml) at an OD₅₅₀ of 0.6. Afterwards, cells were lysed (100 mM Na-borate, pH 8.0, 80 mM NaCl, 1 mM EDTA, 0.025% w/v lysozyme) for 1 h under agitation. To minimize non-specific binding in the subsequent ELISA screen, the crude cell lysates were supplemented with 2% w/v BSA and 0.1% v/v Tween 20 and tested in ELISA for binding to human CTLA-4-Fc (Chimerigen).
# In a reverse ELISA approach soluble expressed muteins from the crude cell lysate were captured via immobilized T7 mAb (5 μg/ml, Novagen) on wells of black Fluotrac 600 ELISA plates (Greiner; 384 well). Neutravidin, 5 μg/ml, and 3% milk were used as negative control. […] Subsequently plates were washed five times and bound target was detected via an goat anti-human Fc monoclonal antibody-HRP conjugate (Jackson ImmunoResearch), diluted 1:5.000 in PBST/0.1. Therefore, QuantaBlu™ (Pierce; 1:2 diluted in PBS/T 0.1%) was used as fluorogenic HRP substrate. After 45 min of signal development at room temperature fluorescence was excited at a wavelength of 320 nm (±12.5 nm) and measured at 430 nm (±17.5 nm) in a GENiosPlus plate reader (Tecan).
# In some cases a competition ELISA was carried out where CTLA4-Fc (2.5 μg/ml) was captured in ELISA plates via an immobilized mouse anti-human IgG Fc Gamma fragment-specific antibody (Jackson ImmunoResearch (5 μg/ml) and incubated for 1 h with a pre-mixture of the mutein extracts and different concentrations of a competitive CTLA4-specific mAb BNI3 (BD Bioscience) at concentrations of 30, 100, and 200 nM, respectively.
row,binding result,Molecule
1,binds,B7
2,binds,B8
3,binds,B9
4,binds,B10
5,binds,B11

# Target: T3, murine CTLA4-Fc (R&D Systems) (mouse, UniProt P09793 36-162, limits assumed)
# T3 construct: Bought fusion protein; also called mouse CTLA4; not shown: It was captured by an anti-human IgG-Fc antibody
# Test: SPR, Biacore T100, 25 C; CTLA4-Fc captured on anti-human IgG-Fc, mutein as analyte; 1:1 Langmuir fit
# Experimental: (§1) Real time affinity analysis was performed at 25° C. using a Biacore T100 system (GE Healthcare). Anti-human IgG-Fc antibody (Jackson ImmounoResearch Laboratories) was immobilized on a CM5 sensor chip using standard amine coupling chemistry, resulting in a ligand density of 8000 resonance units (RU). […] Subsequently, the Lcn2 muteins (SEQ ID: No 12 to SEQ ID NO: 17) were applied in an appropriate dilution series in HBS-EP at a flow rate of 30 μl/min. Regeneration of the derivatized chip surface was achieved by a combination of first basic (2.5 mM NaOH) and then acidic (10 mM glycine, pH 1.5) buffer, each for 8 and 16 s, respectively. […] To correct for buffer effects and baseline drift, double referencing was used throughout. Kinetic data evaluation was performed using the Biacore T100 Evaluation Software (v. 2.0.1) using the Langmuir 1:1 binding model and global fitting.
Kd [nM],koff [s⁻¹],kon [M⁻¹ s⁻¹],Molecule
0.584,0.000129,221000,B1
0.672,0.000134,199000,B2
66.1,4.21,6.36e+07,B3
0.32,0.000261,813000,B4
3.05,0.000907,298000,B5
0.413,0.000108,261000,B6

# Target: T2, human CTLA-4-Fc (Chimerigen)
# Test: as above
# Experimental: as §1
Kd [nM],koff [s⁻¹],kon [M⁻¹ s⁻¹],Molecule
0.346,0.000186,539000,B1
0.46,0.000194,422000,B2
0.588,0.000197,335000,B3
0.74,0.000281,380000,B4
0.686,0.000388,565000,B5
0.659,0.000517,784000,B6
